Test results published in article PMC8330776 (Emerging Microbes & Infections, 2021).

Molecular target: SARS-CoV-2 S trimer (SARS-CoV-2, UniProt P0DTC2)
Test: SPR
Conditions: both partners purified

B1: wheat germ agglutinin (natural protein)
chain: QRCGEQGSNMECPNNLCCSQYGYCGMGGDYCGKGCQNGACWTSKRCGSQAGGATCTNNQCCSQYGYCGFGAEYCGAGCQGGPCRADIKCGSQAGGKLCPNNLCCSQWGFCGLGSEFCGGGCQSGACSTDKPCGKDAGGRVCTNNYCCSKWGSCGIGPGYCGAGCQSGGCDG
Kd: 1.5 nM
koff: 0.00482 s⁻¹
kon: 3.21e+06 M⁻¹ s⁻¹
